Experimental data reported in the supplement of paper PMC9170038.

System: MS2 coat protein
Test: apparent KD of MS2 coat protein; designed switch direction (-1 OFF switch, 1 ON switch): -1; higher = weaker reporter binding
Procedure, shortened: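 Designed RNA switches with common flanks were made on Illumina chips by stalled E. coli RNA polymerase. Titration with SNAP-549-labelled MS2 coat protein doubled from 0.7 or 1.5 nM up to 3 µM. Apparent KD is each design's median over clusters after curve-fitting normalised fluorescence.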

[1] = Eterna round: R95, input ligand: microRNA oligo, concentration not stated
[2] = input ligand: microRNA oligo, concentration not stated

Row | Sequence | apparent KD of MS2 coat protein (input ligand: FMN 200 uM) | apparent KD of MS2 coat protein (input ligand: none) | apparent KD of MS2 coat protein [1] | apparent KD of MS2 coat protein [2]
1 | AGAUUACAUGAGGAUCACCCAUGUCAGGAUAUCGACUGAACAGCUUCGGCUGUUCAGUCGAGAAGGGACAAUUA [Brourdxlusion 10 - Jieux - Exclusion 1] (Eterna round: R97, puzzle: Exclusion 1) | 122 nM | 59.7 nM | – | –
2 | AGCAGACGAGGAUAUAAAUUUAAAUACAUGAGGAUCACCCAUGUAUAAAUGUAUUUAAAUUUAGAAGGCGUCUGCU [E5/12-A1] (Eterna round: R97, puzzle: Exclusion 5) | 793 nM | 710 nM | – | –
3 | AGCAGACGAGGAUAUAGAUUUGAUAACAUGAGGAUCACCCAUGUGAUCGAUAGAUCAGAUUUAGAAGGCGUCUGCU [E5/8-A1] (Eterna round: R97, puzzle: Exclusion 5) | 412 nM | 525 nM | – | –
4 | AGCAGACGAGGAUAUGAUAAUUAAUACAUGAGGAUCACCCAUGUAAUACUGAUCGAUAGAUCAGAAGGCGUCUGCU [E5/3-A2] (Eterna round: R97, puzzle: Exclusion 5) | 14.7 nM | 16.4 nM | – | –
5 | AGCAUGCUAGGAUAUACGAAACAUUAGGGUUCUUUGUAUAAACAUGAGGAUCACCCAUGUAGAAGGAGCGUGCA [Mat - Exclusion 2 - Mod of Hyphema - D97] (puzzle: Exclusion 2) | – | – | 40.9 nM | –
6 | AGCCAAGCAGGAUAUGCCCGGAAUAACAUGAGGAUCACCCAUGUGACCGAUUGAUGUUCUGCAGAAGGGCUUGGAA [Erxesoan mod] (Eterna round: R97, puzzle: Exclusion 5) | 214 nM | 28.8 nM | – | –
7 | AGCCUACAUGAGGAUCACCCAUGUCAGGAUAUCUCGCGACGUGUCGGGAACACGUUGCAGAGAAGGGACUCGGG [Labezadi] (puzzle: Exclusion 1) | – | – | 51.8 nM | –
8 | AGCCUAGCAGGAUAUGCCCGGGAUAACAUGAGGAUCACCCAUGUGACCGAUUGAUGUCUUGCAGAAGGGCUAGGGA [JL-EX5-4.02 ViennaUCT mod] (Eterna round: R97, puzzle: Exclusion 5) | 58.4 nM | 15.7 nM | – | –
9 | AGCGAAUAGCUAGGAUAUGAGAAUAGAUAGAGCUCAGAAGGAGCACAUGAGGAUCACCCAUGUAAAGUCUUGAGGCUGCGUGGU [Prohibition 16 - Jieux - Exclusion NG 1] (Eterna round: R96, puzzle: Exclusion NG 1) | 79.5 nM | 66.3 nM | – | 27.2 nM
10 | AGCGAGACAGGAUAUACUUGAGGAUCACCCAAGUCACAAAGGGUCUCACUCUUCACUAGUAGAAGGGUCGUGUA [Lereer] (Eterna round: R97, puzzle: Exclusion 3) | 24.1 nM | 18.7 nM | – | –
11 | AGCGAGGCAGGAUAUACAUGAGGAUCACCCAUGUGCUUGUAUGGCGUGGAACAUCGUAGUAGAAGGGCCGCGCC [EX3 #77] (Eterna round: R97, puzzle: Exclusion 3) | 28.4 nM | 22.2 nM | – | –
12 | AGCGAGGUAGGAUAUACAUGAGGAUCACCCAUGUGCUUGCAUGGCGUGGAAUGUCGAGGUAGAAGGGCCAUGCC [EX3 #72] (Eterna round: R97, puzzle: Exclusion 3) | 33.2 nM | 27.2 nM | – | –
13 | AGCGCCAUCGUGAGAUGGCGUAUUACAUGAGGAUCACCCAUGUAGGAUAUCGAUUGCUUUGCAGUCGAGAAGGGCAUGUCCCAG [JL ENG3 3.80 Mod J] (Eterna round: R96, puzzle: Exclusion NG 3) | 23 nM | 24.1 nM | – | 19.2 nM
14 | AGCUAGUCAGGAUAUACGAACACCUCAAAAGAGGUGAAGGGACAUGAGGAUCACCCAUGUAGAAGGGACUAGCA [Mat - Exclusion 2 - JL mod - D29] (Eterna round: R96, puzzle: Exclusion 2) | 167 nM | 24.3 nM | – | 21.3 nM
15 | AGCUGACGAGGAUAUACAUGAGGAUCACCCAUGUUGGUCAAGCGACUUCGGUCGCAAUGUAGAAGGCGUCAGCU [E3/8-A4] (Eterna round: R97, puzzle: Exclusion 3) | 263 nM | 430 nM | – | –
16 | AGCUGACGAGGAUAUACAUGAGGAUCACCCAUGUUGGUUCAGCGACGAUAGUCGCAAUGUAGAAGGCGUCAGCU [E3/9-A1] (Eterna round: R97, puzzle: Exclusion 3) | 77.4 nM | 496 nM | – | –
17 | AGCUGUGGCCAAGGAUAUCCAGCCUUAAAUACCGACGUAUAGUCGGACAUGAGGAUCACCCAUGUGGAGAAGGUGGUCUCAGCA [Eli eng2 - 040] (Eterna round: R96, puzzle: Exclusion NG 2) | 109 nM | 56.8 nM | – | 45 nM
18 | AGCUGUGGCCGAGGAUAUCACGAACCAUGGAAAACCAUGGAAACUCUACAUGAGGAUCACCCAUGUGAGAAGGCGGUCUCAGCA [Eli eng2 - 022] (Eterna round: R96, puzzle: Exclusion NG 2) | 87.7 nM | 35.2 nM | – | 21.6 nM
19 | AGCUGUGGCCGAGGAUAUCCAACCUUAAAUACCGACGUAUAGUCGGACAUGAGGAUCACCCAUGUGGAGAAGGCGGUCUCAGCA [Eli eng2 - 039] (Eterna round: R96, puzzle: Exclusion NG 2) | 62.5 nM | 47.1 nM | – | 28 nM
20 | AGCUGUGGCCGAGGAUAUCCACAUGAGGAUCACCCAUGUUGAUACGCCGUUAGGCGAUAUAGAAGGGAGAAGGCGGUCUCAGCA [Eli eng2 - 050] (Eterna round: R96, puzzle: Exclusion NG 2) | 7.84 nM | 13.7 nM | – | 7.26 nM
21 | AGCUGUGGCCGAGGAUAUCUAAACUCAAUAACCGAAAUAUAAUCGGACAUGAGGAUCACCCAUGUAGAGAAGGCGGUCUCAGCA [Eli eng2 - 081] (Eterna round: R96, puzzle: Exclusion NG 2) | – | – | – | 28 nM
22 | AGCUGUGGCCGAGGAUAUCUAUCCAAUAUAACCGAAAUAUAAUCGGACAUGAGGAUCACCCAUGUAGAGAAGGCGGUCUCAGCA [Eli eng2 - 093] (Eterna round: R96, puzzle: Exclusion NG 2) | – | – | – | 15.3 nM
23 | AGCUGUGGCCGAGGAUAUCUAUCCCAAAUAACCGAAAUAUAAUCGGACAUGAGGAUCACCCAUGUAGAGAAGGCGGUCUCAGCA [Eli eng2 - 088] (Eterna round: R96, puzzle: Exclusion NG 2) | – | – | – | 20.4 nM
24 | AGCUGUGGCCGAGGAUAUCUGUUCCAUAUAACCGAAAUAUAAUCGGACAUGAGGAUCACCCAUGUAGAGAAGGCGGUCUCAGCA [Eli eng2 - 100] (Eterna round: R96, puzzle: Exclusion NG 2) | – | – | – | 18.8 nM
25 | AGCUGUGGCCGAGGAUAUGACAUGAGGAUCACCCAUGUACACGAUUAGGCCUGGUAACAGGCUCAUCAGAAGGCGGUCUCAGCA [Eli eng2 - 017] (Eterna round: R96, puzzle: Exclusion NG 2) | 9.77 nM | 13 nM | – | 10.4 nM
26 | AGCUGUGGCCGAGGAUAUGACAUGAGGAUCACCCAUGUACAUAAUUAGGCCUGGUAACAGGCUCGUCAGAAGGCGGUCUCAGCA [Eli eng2 - 007] (Eterna round: R96, puzzle: Exclusion NG 2) | 12.3 nM | 12.6 nM | – | 8.31 nM
